Test results: patent publication US7138236B1, “Interactions of ATM, ATR or DAN-PK with p53” (Kudos Pharmaceuticals Limited, priority 1997, dated 2006)
Square brackets hold non-standard residues; d marks the D form. pT = C[C@@H](OP(=O)(O)O)[C@H](N)C(=O)O

What follows are substances tested against Mdm-2 (Homo sapiens, UniProt Q00987) (assay: Mdm-2 binding of p53-derived peptides by ELISA analysis). Details: peptides containing p53 residues 11 to 25, unphosphorylated or phosphorylated on Ser15 and/or Thr18.
Sequence of Mdm-2 (Q00987 whole entry, species assumed, the tested form may be a part): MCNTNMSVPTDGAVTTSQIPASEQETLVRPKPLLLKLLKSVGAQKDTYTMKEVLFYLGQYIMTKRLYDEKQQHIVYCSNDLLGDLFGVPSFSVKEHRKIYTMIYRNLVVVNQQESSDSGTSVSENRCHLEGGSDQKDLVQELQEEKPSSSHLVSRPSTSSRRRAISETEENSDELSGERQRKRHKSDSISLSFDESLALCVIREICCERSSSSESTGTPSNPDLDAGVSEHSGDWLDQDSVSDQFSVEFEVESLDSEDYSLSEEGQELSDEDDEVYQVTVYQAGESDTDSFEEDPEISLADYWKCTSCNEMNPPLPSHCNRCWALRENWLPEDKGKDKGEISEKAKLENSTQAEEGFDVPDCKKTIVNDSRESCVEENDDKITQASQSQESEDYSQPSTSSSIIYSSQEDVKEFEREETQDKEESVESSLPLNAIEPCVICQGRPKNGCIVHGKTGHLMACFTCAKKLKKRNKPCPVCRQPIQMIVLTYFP
Procedure: To test whether phosphorylation on Ser15 or Thr18 of p53 affects its interaction with Mdm-2, phosphorylated and unphosphorylated p53-derived peptides were generated and were assessed for Mdm-2 binding by ELISA analysis. The four peptides used contained p53 residues 11 to 25 (in the sequence (SEQ ID NO:11) NH2-SGSGEPPLSOETFSDLWKL-COOH; where the underlined sequence is that derived from p53) that were unphosphorylated (1); phosphorylated on residue equivalent to p53 residue Ser15(2); phosphorylated on residue equivalent to p53 residue Thr18(3); or phosphorylated on two residues, equivalent to p53 residue Ser15 and Thr18(4). […] We therefore conclude that phosphorylation on Thr18 of p53 has a dramatic effect on its interaction with […] and that phosphorylation of this site is likely to play a key role in regulating p53 responses in vivo.

Q: Which “Mdm-2 binding of p53-derived peptides” value does the source give for “NH2-SGSGEPPLSOETFSDLWKL-COOH [3] (H-SGSGEPPLSQE[pT]FSDLWKL-OH; SMILES CC(C)C[C@H](NC(=O)[C@H](CCCCN)NC(=O)[C@H](Cc1c[nH]c2ccccc12)NC(=O)[C@H](CC(C)C)NC(=O)[C@H](CC(=O)O)NC(=O)[C@H](CO)NC(=O)[C@H](Cc1ccccc1)NC(=O)[C@@H](NC(=O)[C@H](CCC(=O)O)NC(=O)[C@H](CCC(N)=O)NC(=O)[C@H](CO)NC(=O)[C@H](CC(C)C)NC(=O)[C@@H]1CCCN1C(=O)[C@@H]1CCCN1C(=O)[C@H](CCC(=O)O)NC(=O)CNC(=O)[C@H](CO)NC(=O)CNC(=O)[C@@H](N)CO)[C@@H](C)OP(=O)(O)O)C(=O)O; UniProt P04637 11-25, looked up, fragment) [compound 3, peptide containing p53 residues 11 to 25, phosphorylated on residue equivalent to Thr18]” here?
A: The value was “inhibited dramatically”.

Q: How did the “Mdm-2 binding of p53-derived peptides” value turn out when “NH2-SGSGEPPLSOETFSDLWKL-COOH [compound 4]” was run?
A: Its value is “inhibited dramatically”.

Q: Which “Mdm-2 binding of p53-derived peptides” value does the source give for “NH2-SGSGEPPLSOETFSDLWKL-COOH [peptide 1] (H-SGSGEPPLSQETFSDLWKL-OH; UniProt P04637 11-25, looked up, fragment) [peptide containing p53 residues 11 to 25, unphosphorylated]” here?
A: The value was “occurred effectively”.

Q: “NH2-SGSGEPPLSOETFSDLWKL-COOH [peptide 2] (EPPLSQETFSDLWKL; phospho-Ser15; N-terminal SGSG linker; UniProt P04637 11-25, looked up, fragment) [peptide containing p53 residues 11 to 25, phosphorylated on residue equivalent to Ser15]” was tested. Which “Mdm-2 binding of p53-derived peptides” value did it give?
A: Its value is “only impaired slightly”.
